# The supplement of paper PMC10266784
# B1: library; numbered along this chain (parent)
# chain: MAAAAAAAAEQQSSNGPVKKSMREKAVERRSVNKEHNSNFKAGYIPIDEDRLHKTGLRGRKGNLAICVIILLFILAVINLIITLVIWAVIRIGPNGCDSMEFHESGLLRFKQVSDMGVIHPLYKSTVGGRRNENLVITGNNQPIVFQQGTTKLSVENNKTSITSDIGMQFFDPRTQNILFSTDYETHEFHLPSGVKSLNVQKASTERITSNATSDLNIKVDGRAIVRGNEGVFIMGKTIEFHMGGNMELKAENSIILNGSVMVSTTRLPSSSSGDQLGSGDWVRYKLCMCADGTLFKVQVTSQNMGCQISDNPCGNTH
# Variants of: B1
# Experiment: SGCB cell-surface expression functional score (HA stain, bin4 vs bin1, normalised to synonymous) (log10 ratio); higher = more cell-surface SGCB (functional)
# Procedure, shortened: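 The functional score is a log ratio of variant frequency in the highest versus the lowest intensity bin, expressed as a median over codons and duplicate transductions. Codon-saturation libraries of HA-tagged, YFP-fused human beta-sarcoglycan were transduced by lentivirus at MOI <0.1 into HEK293 cells stably expressing alpha-, gamma- and delta-sarcoglycan, and the cells were stained on ice with Alexa Fluor 647 anti-HA, fixed and sorted into four 5% intensity bins before amplicon sequencing. Synonymous variants were scaled to mean 0, SD 0.5 within each section.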
row,Variant,SGCB cell-surface expression functional score (log10)
1,K25R,-0.14
2,Q299K,0.21
3,K286P,0.02
4,N158C,0
5,G96I,-1.54
6,G231D,-0.08
7,P94S,-0.11
8,K41D,-0.08
9,S125I,-1.02
10,N229M,1.28
11,M100F,-0.46
12,K297T,-0.16
13,E156D,-0.04
14,Q147A,0.19
15,N316Y,0.39
16,N95R,-0.09
17,S114W,-0.55
18,H53L,-0.05
19,N217Q,0.77
20,N246V,0.39
21,W282D,-0.17
22,L72E,-0.02
23,T163I,0.32
24,M247V,0.47

row,Variant,SGCB cell-surface expression functional score (log10)
1,G278K,0.27
2,K124H,-0.35
3,N141I,-0.7
4,G16C,-0.06
5,K250A,0.91
6,N258R,0.61
7,L153C,-0.34
8,T163Y,0.58
9,A8L,-0.18
10,L191W,-0.06
11,T317Y,0.51
12,F296S,-0.26
13,T55K,-0.06
14,T317N,0.08
15,Q308W,-0.34
16,G306N,-0.83
17,S260V,0.01
18,H120Y,0.03
19,V155C,-0.76
20,A65M,-0.02
21,E185P,0.33
22,N211D,-0.68
23,V32D,0.47
24,D98H,0.4

row,Variant,SGCB cell-surface expression functional score (log10)
1,L277R,-0.27
2,R91I,-1.85
3,E185I,-0.23
4,H187T,-1.03
5,P173F,-0.34
6,I162W,0.05
7,I90N,0.07
8,T266A,0.63
9,P269L,0.23
10,I162G,-1.34
11,Q299F,-0.05
12,R227I,-0.01
13,P143V,0.07
14,Q112I,0.03
15,G106A,-0.24
16,G245P,0.4
17,K237M,0.8
18,A9V,0.15
19,T138E,-0.61
20,R60T,0.01
21,I255A,0.2
22,I162Q,-0.98
23,A4H,0.44
24,A203L,0

row,Variant,SGCB cell-surface expression functional score (log10)
1,R29N,0.21
2,S210R,-1.31
3,K61W,0.05
4,Q201L,-0.33
5,E240Y,0.83
6,S197T,-0.2
7,N253R,0.29
8,V195K,-1.88
9,A3G,0.02
10,D221C,-0.33
11,H120L,0.39
12,T138L,0.16
13,D183C,-1.17
14,I82E,-0.49
15,S210A,0.29
16,M168L,0.01
17,E133D,0.54
18,F180N,-2.28
19,T186D,0.53
20,K286M,0.29
21,M22G,-0.11
22,A6R,0
23,L72C,0.42
24,N15V,0.31

row,Variant,SGCB cell-surface expression functional score (log10)
1,S114A,0.55
2,L135K,-1.3
3,G16E,0.38
4,L216C,-2.34
5,Q112G,-0.59
6,I86C,-0.24
7,Q176L,-0.17
8,L216G,-1.5
9,S161E,0.42
10,L122M,0.05
11,V18T,0.24
12,L108S,-0.5
13,V300W,-0.26
14,L122Y,0.31
15,K19Q,-0.12
16,L75S,0.09
17,R227L,0.68
18,G106S,-0.78
19,M22D,-0.21
20,V85N,-0.37
21,R174L,0.05
22,R227Q,0.55
23,I74C,0.07
24,E206M,1.59

row,Variant,SGCB cell-surface expression functional score (log10)
1,S164G,-0.13
2,S99G,-0.07
3,Q276M,0.2
4,N158A,-0.1
5,M168P,-0.24
6,C67S,0.04
7,W282T,-0.1
8,S13C,-0.36
9,A9G,0.37
10,I70G,0.35
11,A65F,0.21
12,N132P,-1.06
13,A8P,0.35
14,L287E,-0.2
15,I309R,0
16,P192M,-1.22
17,S21K,0.75
18,P173G,-0.17
19,S270R,0.24
20,C97W,-1.46
21,N95K,0.16
22,R58Q,-0.12
23,R29F,-0.17
24,I239W,-0.02

row,Variant,SGCB cell-surface expression functional score (log10)
1,V27R,0.06
2,T182C,-2.09
3,A42F,-0.42
4,A251T,0.52
5,T175Q,1.26
6,A7I,0.29
7,V155H,-1.51
8,I166M,-0.16
9,E10A,0.17
10,I166Y,0.18
11,K237G,0.05
12,S181A,0.2
13,R30Y,-0.56
14,T186M,-1.55
15,R30T,0.19
16,C97Q,-1.14
17,V220E,-0.86
18,S99P,-0.38
19,K111T,-0.37
20,R29S,0.25
21,G274I,0.31
22,Q112P,-1.14
23,H242K,1.04
24,T138Y,-0.33
